Reference: patent US20260210971A1 (Pfizer, published 2026)
Like-named read-outs stand apart in the source and are kept apart here.

Columns and labels:
[1] = target: T1, recombinant soluble human TL1A (human, UniProt O95150 71-251); assay: SPR, IgG captured on anti-hIgG, TL1A injected
T1 construct: Homotrimer, expressed in HEK293 and purified over HitrapNTA; no tag is described; Used biotinylated in the HTRF assay and in flow cytometry; also called rsTL1A; hTL1A
T1 sequence: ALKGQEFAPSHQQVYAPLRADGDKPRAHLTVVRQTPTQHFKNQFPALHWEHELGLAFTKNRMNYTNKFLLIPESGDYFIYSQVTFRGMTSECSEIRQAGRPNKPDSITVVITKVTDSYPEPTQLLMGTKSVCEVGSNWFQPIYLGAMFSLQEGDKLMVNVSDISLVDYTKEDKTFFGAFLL
From the text: (§1) To characterize the binding kinetics of the anti-TL1A antibodies to TL1A by surface plasmon resonance, each anti-TL1A antibody was captured via directly immobilized anti-human IgG (GE Healthcare) onto a carboxymethylated dextran sensor chip surface (CM5) using a Biacore T100 or T200 instrument. Anti-human IgG was immobilized through amine coupling to densities of approximately 4,000-13,000 response units (RU). […] At the end of each cycle, the entire anti-human IgG (hIgG) surface was regenerated by a 30-second pulse of 3M MgCl₂ followed by two consecutive 15-second pulses of PBS-NET. All injections were performed at 25° C. at a collection rate of 10 Hz. All sensorgrams were double referenced by using both a control surface and buffer injections. Rate constants were determined by fitting the data to a 1:1 model in Biacore T100, T200 evaluation software v1.0, or BIAevaluation software v4.1.1 and the equation KD=kd/kₐ.
(§2) The anti-TL1A antibodies were captured onto immobilized anti-human Fc on a CM5 sensor chip on a Biacore T100 instrument. […] Rate constants shown in the table were determined by fitting to a 1:1 Langmuir binding model in BiaEvaluation v4.1.1 (fit lines shown in red). Data shown are the average and standard deviation of at least 3 independent surfaces between 2 experiments.

[2] = target: T2, recombinant soluble cynomolgus monkey TL1A (cynomolgus monkey, UniProt O95150 72-251 (human entry)); assay: SPR, IgG captured on anti-hIgG, TL1A injected;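 as to t1/2: biacore surface plasmon resonance on a dextran sensor chip, double-referenced sensorgrams fitted to a one-to-one binding model, KD taken as dissociation over association rate constant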
T2 construct: also called cyno rsTL1A; cyno TL1A
T2 chain: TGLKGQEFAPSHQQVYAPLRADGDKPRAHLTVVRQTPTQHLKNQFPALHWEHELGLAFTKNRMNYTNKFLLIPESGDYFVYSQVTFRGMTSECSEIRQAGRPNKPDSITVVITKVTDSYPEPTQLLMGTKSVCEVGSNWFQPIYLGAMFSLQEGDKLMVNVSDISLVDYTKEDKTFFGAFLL
From the text: as §1, §2

[3] = target: T1, recombinant soluble human TL1A; assay: cell-based or functional assay
[4] = target: T1, recombinant soluble human TL1A; assay: KinExA, equilibrium in solution
Method: This assay involves pre-incubating antibody: antigen mixtures in solution long enough to reach equilibrium before measuring the level of unbound antibody using a solid phase component. […] Beads were blocked for 1 hour with PBS plus 10 mg/ml bovine serum albumin (bovine serum albumin, Sigma) at room temperature before being diluted up to a total of 27 ml in PBS. […] For each titration series, a buffer sample and a sample of antibody alone were included. Each antibody: TL1A mixture was tumbled at room temperature for at least six hours to reach equilibrium and then each mixture was injected over the solid phase of TL1A-coated beads in the instrument flow cell. […] Beads were replenished between each sample. Binding signals of detected free antibody were converted to percentage of free, unbound antibody as measured by the antibody only sample and plotted versus each concentration of TL1A. For each antibody, the KD and ABC controlled curves were fit simultaneously using n-Curve Analysis software v3.1.4 to fit the curves to the ‘affinity, unknown ligand’ model and measure an equilibrium KD.
Solution-based kinetic exclusion assays (KinExA) were carried out as an orthogonal technique to measure equilibrium KD values.

[5] = target: T2, recombinant soluble cynomolgus monkey …; assay: SPR, IgG captured on anti-hIgG, TL1A injected
From the text: (§3) The antibodies were captured via directly immobilized anti-human IgG (GE Healthcare) onto a carboxymethylated dextran sensor chip surface (CM5) using a Biacore T100 or T200 instrument. Anti-human IgG was immobilized through amine coupling to densities of approximately 4,000-13,000 response units (RU). […] At the end of each cycle, the entire anti-hIgG surface was regenerated by a 30-second pulse of 3M MgCl₂ followed by two consecutive 15-second pulses of PBS-NET. […] All injections were performed at 25° C. at a collection rate of 10 Hz. All sensorgrams were double referenced by using both a control surface and buffer injections. Rate constants were determined by fitting the data to a 1:1 model in Biacore T100, T200 evaluation software v1.0, or BIAevaluation software v4.1.1 and the equation KD=Kd/kₐ.
(§4) At the highest cytokine concentrations, the dissociation phase was sometimes extended to 60 minutes to achieve at least a 5% decrease in binding signal.

[6] = target: T3, recombinant soluble murine TL1A (mouse, UniProt Q5UBV8 75-252); assay: SPR, IgG captured on anti-hIgG, TL1A injected;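 as to koff: biacore measurement on a carboxymethylated dextran chip, double-referenced against a control surface and buffer, rates fitted to a one-to-one binding model, KD from koff over kon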;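 as to kon: biacore measurement on a carboxymethylated dextran chip, double-referenced against a control surface and buffer, rates fitted to a one-to-one binding model, KD from koff over kon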
T3 construct: also called murine rsTL1A; mouse TL1A
T3 chain: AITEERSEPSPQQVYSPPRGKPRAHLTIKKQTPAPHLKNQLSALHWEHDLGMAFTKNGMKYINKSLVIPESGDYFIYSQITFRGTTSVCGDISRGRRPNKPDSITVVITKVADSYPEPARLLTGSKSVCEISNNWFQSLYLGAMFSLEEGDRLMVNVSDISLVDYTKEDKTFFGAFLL
From the text: as §3, §4

[7] = target: T4, recombinant soluble rat TL1A (rat, UniProt Q8K3Y7 76-252); assay: SPR, IgG captured on anti-hIgG, TL1A injected
T4 construct: also called rat rsTL1A
T4 sequence: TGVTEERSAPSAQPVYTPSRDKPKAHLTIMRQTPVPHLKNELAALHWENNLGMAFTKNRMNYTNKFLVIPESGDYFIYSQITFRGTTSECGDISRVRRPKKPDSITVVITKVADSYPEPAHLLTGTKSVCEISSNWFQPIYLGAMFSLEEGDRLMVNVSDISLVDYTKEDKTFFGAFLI
From the text: as §3, §4

[8] = target: T1, recombinant soluble human TL1A; assay: SPR, IgG captured on anti-hIgG, TL1A injected; off rate too slow to measure
[9] = target: T1, recombinant soluble human TL1A; assay: SPR, IgG captured on anti-hIgG, TL1A injected; remark: listed apart in the source
Method: Biacore analysis was performed using T-200 biosensor, series S CM5 chips and approximately 4000 RU (response units) of an anti-human IgG (GE Healthcare), immobilized in 10 mM sodium acetate immobilization buffer at pH 5.0. Assay conditions were established to minimize the influence of mass transfer, avidity, and rebinding events, as described below. A blank immobilization was carried out on a separate flow cell for reference subtraction. The purified IgGs were diluted in running buffer (PBS, 300 mM sodium chloride, 3.2 mM ethylenediaminetetraacetic acid, 0.01% Tween20) and low levels (<30 RU) captured using a flow rate of 100 μl/min for 2 min, to reduce possible rebinding by the trimeric TL1A. […] Reference-subtracted sensorgrams for each concentration were analyzed using Biacore T-200 evaluation software (v1.0).

[10] = target: T1, recombinant soluble human TL1A; assay: SPR, IgG captured on anti-hIgG, TL1A injected; remark: listed apart in the source
[11] = target: T2, recombinant soluble cynomolgus monkey …; assay: SPR, IgG captured on anti-hIgG, TL1A injected
[12] = target: T3, recombinant soluble murine TL1A; assay: SPR, IgG captured on anti-hIgG, TL1A injected;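 as to koff: biacore measurement on a carboxymethylated dextran chip, double-referenced against a control surface and buffer, rates fitted to a one-to-one binding model, KD from koff over kon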;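 as to kon: biacore measurement on a carboxymethylated dextran chip, double-referenced against a control surface and buffer, rates fitted to a one-to-one binding model, KD from koff over kon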

B1: anti-TL1A antibody 26B11 (antibody, V domains shown)
VH: QVQLVESGGGVVQPGRSLRLSCAASGFTFSSFAMHWVRQAPGKGLEWVALIPFDGSSNYYADSVKGRFTISRDNSKNTLYLQMNSLRAEDTAVYYCARDRNYYGSGSFSFDAFDIWGQGTLVTVSS
VL: DIQMTQSPSSLSASVGDRVTITCRASQGISNWLAWYQQKPEKAPKSLIYAASSLQSGVPSRFSGSGSGTDFTLTISSLQPEDFATYYCQQYNSYPYTFGQGTKLEIKR
notes: also called 26B11-hIgG1-3m
- Kd [1]: 0.6 nM
- koff [1]: 0.00011 s⁻¹
- kon [1]: 170000 M⁻¹ s⁻¹
- Kd [2]: 36 nM
- koff [2]: 0.006 s⁻¹
- kon [2]: 200000 M⁻¹ s⁻¹

B2: anti-TL1A antibody 7D4 (antibody, human IgG1, kappa, V domains shown)
VH: QVQLVQSGAEVKKPGASVKVSCKASGYTFTSYGINWVRQAPGQGLEWMGWISTYNGNTNSAQKLQGRVTMTTDTSTSTAYMELRSLRSDDTAVYYCARAHSSSWFDAFDIWGQGTMVTVSS
VL: AIQLTQSPSSLSASVGDRVTITCRASQGISSALAWYQQKPGKAPKLLIYDASSLESGVPSRFSGSGSGTDFTLTISSLQPEDFATYYCQQFNSYPLTFGGGTKVEIKR
notes: Human IgG1-3m, kappa; also called 7D4-hIgG1-3m
- Kd [1]: 0.9 nM
- koff [1]: 0.0004 s⁻¹
- kon [1]: 400000 M⁻¹ s⁻¹
- Kd [2]: 6.9 nM
- koff [2]: 0.0014 s⁻¹
- kon [2]: 200000 M⁻¹ s⁻¹

B3: 1D1 1.30 (antibody, human IgG1, kappa, V domains shown)
VH: QVQLVQSGAEVKKPGASVKVSCKASGYDFTYYGISWVRQAPGQGLEWMGWISTYNGVTHYARMLQGRVTMTTDTSTRTAYMELRSLRSDDTAVYYCARENYYGSGSYRGGMDVWGQGTTVTVSS
VL: EIVLTQSPATLSLSPGERATLSCRASQSVSSYLAWYQQKPGQAPRLLIYDASNRATGIPARFSGSGSGTDFTLTISSLEPEDFAVYYCQQRSNWPWTFGQGTKVEIKR
notes: Expressed as IgG1; also called 1D1 1.30-hIgG1-3m
- Caspase Assay, average IC50 [3]: 0.103 nM
- NFkB Assay, average IC50 [3]: 0.37 nM
- Kd [4]: 0.0068 nM
- Kd [5]: 0.142 nM
- koff [5]: 6e-05 s⁻¹
- kon [5]: 410000 M⁻¹ s⁻¹
- t1/2 [5]: 199 min
- Kd [6]: 5.25 nM
- koff [6]: 0.0007 s⁻¹
- kon [6]: 140000 M⁻¹ s⁻¹
- t1/2 [6]: 17.9 min
- Kd [7]: 41.9 nM
- koff [7]: 0.0098 s⁻¹
- kon [7]: 240000 M⁻¹ s⁻¹
- t1/2 [7]: 1.18 min
- Kd [8]: < 0.1 nM

B4: 1D1 D37 (antibody, IgG1, V domains shown)
VH: QVQLVQSGAEVKKPGASVKVSCKASGYSFTYYGISWVRQAPGQGLEWMGWISTYNGGTHYARMLQGRVTMTTDTSTRTAYMELRSLRSDDTAVYYCARENYYGSGSYRGGMDVWGQGTTVTVSS
VL: EIVLTQSPATLSLSPGERATLSCRASQSVSSYLAWYQQKPGQAPRLLIYDASNRATGIPARFSGSGSGTDFTLTISSLEPEDFAVYYCQQRSNWPWTFGQGTKVEIKR
notes: same light chain as 1D1; also called 1D1-VH-37
- Kd [9]: 0.326 nM
- koff [9]: 0.00035 s⁻¹
- kon [9]: 1.26e+06 M⁻¹ s⁻¹
- Kd [10]: 0.305 nM
- Kd [11]: 0.335 nM
- Kd [12]: 0.787 nM

B5: 1D1 D24 (antibody, V domains shown)
VH: QVQLVQSGAEVKKPGASVKVSCKASGYSFTYYGISWVRQAPGQGLEWMGWISPYNGNTHYARMLQGRVTMTTDTSTRTAYMELRSLRSDDTAVYYCARENYYGSGSYRGGMDVWGQGTTVTVSS
VL: EIVLTQSPATLSLSPGERATLSCRASQSVSSYLAWYQQKPGQAPRLLIYDASNRATGIPARFSGSGSGTDFTLTISSLEPEDFAVYYCQQRSNWPWTFGQGTKVEIKR
notes: IgG with triple mutant Fc as for 1D1 D37
- Kd [9]: 0.394 nM
- koff [9]: 0.000806 s⁻¹
- kon [9]: 2.04e+06 M⁻¹ s⁻¹
- Kd [10]: 0.932 nM
- Kd [11]: 0.943 nM
- Kd [12]: 0.804 nM

B6: 1D1 1.32 (antibody, human IgG1, kappa, V domains shown)
VH: QVQLVQSGAEVKKPGASVKVSCKASGYDFTYYGISWVRQAPGQGLEWMGWISTYNGGTHYARMLQGRVTMTTDTSTRTAYMELRSLRSDDTAVYYCARENYYGSGAYRGGMDAWGQGTTVTVSS
VL: EIVLTQSPATLSLSPGERATLSCRASQSVSSYLAWYQQKPGQAPRLLIYDASNRATGIPARFSGSGSGTDFTLTISSLEPEDFAVYYCQQRSNWPWTFGQGTKVEIKR
notes: Expressed as IgG1
- Caspase Assay, average IC50 [3]: 0.0615 nM
- NFkB Assay, average IC50 [3]: 0.18 nM
- Kd [4]: 0.00615 nM
- Kd [5]: 0.066 nM
- koff [5]: 2.9e-05 s⁻¹
- kon [5]: 460000 M⁻¹ s⁻¹
- t1/2 [5]: 398 min
- Kd [6]: 0.906 nM
- koff [6]: 0.00023 s⁻¹
- kon [6]: 260000 M⁻¹ s⁻¹
- t1/2 [6]: 49.5 min
- Kd [7]: 5.02 nM
- koff [7]: 0.0029 s⁻¹
- kon [7]: 580000 M⁻¹ s⁻¹
- t1/2 [7]: 3.95 min
- Kd [8]: < 0.1 nM

B7: 1D1 D38 (antibody, V domains shown)
VH: QVQLVQSGAEVKKPGASVKVSCKASGYSFTYYGISWVRQAPGQGLEWMGWISTYNGVTHYARMLQGRVTMTTDTSTRTAYMELRSLRSDDTAVYYCARENYYGSGSYRGGMDVWGQGTTVTVSS
VL: EIVLTQSPATLSLSPGERATLSCRASQSVSSYLAWYQQKPGQAPRLLIYDASNRATGIPARFSGSGSGTDFTLTISSLEPEDFAVYYCQQRSNWPWTFGQGTKVEIKR
notes: as for B5
- Kd [9]: 0.44 nM
- koff [9]: 0.000463 s⁻¹
- kon [9]: 1.05e+06 M⁻¹ s⁻¹
- Kd [10]: 0.687 nM
- Kd [11]: 0.611 nM
- Kd [12]: 1.29 nM

B8: 1D1 D39 (antibody, V domains shown)
VH: QVQLVQSGAEVKKPGASVKVSCKASGYSFTYYGISWVRQAPGQGLEWMGWISTYNGNTNYARMLQGRVTMTTDTSTRTAYMELRSLRSDDTAVYYCARENYYGSGAYRGGMDAWGQGTTVTVSS
VL: EIVLTQSPATLSLSPGERATLSCRASQSVSSYLAWYQQKPGQAPRLLIYDASNRATGIPARFSGSGSGTDFTLTISSLEPEDFAVYYCQQRSNWPWTFGQGTKVEIKR
notes: as for B5
- Kd [9]: 0.442 nM
- koff [9]: 0.000355 s⁻¹
- kon [9]: 784000 M⁻¹ s⁻¹
- Kd [10]: 0.441 nM
- Kd [11]: 0.396 nM
- Kd [12]: 0.613 nM

B9: 1D1 1.34 (antibody, human IgG1, kappa, V domains shown)
VH: QVQLVQSGAEVKKPGASVKVSCKASGYDFTYYGISWVRQAPGQGLEWMGWISTYNGKTHYARMHQGRVTMTTDTSTRTAYMELRSLRSDDTAVYYCARENYYGSGAYRGGMDAWGQGTTVTVSS
VL: EIVLTQSPATLSLSPGERATLSCRASQSVSSYLAWYQQKPGQAPRLLIYDASNRATGIPARFSGSGSGTDFTLTISSLEPEDFAVYYCQQRSNWPWTFGQGTKVEIKR
notes: Expressed as IgG1
- Caspase Assay, average IC50 [3]: 0.0627 nM
- NFkB Assay, average IC50 [3]: 0.182 nM
- Kd [4]: 0.00116 nM
- Kd [5]: 0.083 nM
- koff [5]: 3.6e-05 s⁻¹
- kon [5]: 440000 M⁻¹ s⁻¹
- t1/2 [5]: 323 min
- Kd [6]: 1.11 nM
- koff [6]: 0.00028 s⁻¹
- kon [6]: 250000 M⁻¹ s⁻¹
- t1/2 [6]: 41.8 min
- Kd [7]: 5.92 nM
- koff [7]: 0.0024 s⁻¹
- kon [7]: 410000 M⁻¹ s⁻¹
- t1/2 [7]: 4.77 min
- Kd [8]: < 0.1 nM

B10: 1D1 DH3 (antibody, V domains shown)
VH: QVQLVQSGAEVKKPGASVKVSCKASGYSFTYYGISWVRQAPGQGLEWMGWISTYNGNTHYAQMLQGRVTMTTDTSTRTAYMELRSLRSDDTAVYYCARENYYGSGSYRGGMDVWGQGTTVTVSS
VL: EIVLTQSPATLSLSPGERATLSCRASQSVSSYLAWYQQKPGQAPRLLIYDASNRATGIPARFSGSGSGTDFTLTISSLEPEDFAVYYCQQRSNWPWTFGQGTKVEIKR
notes: as for B5
- Kd [9]: 0.412 nM
- koff [9]: 0.00102 s⁻¹
- kon [9]: 2.49e+06 M⁻¹ s⁻¹
- Kd [10]: 0.56 nM
- Kd [11]: 0.675 nM
- Kd [12]: 0.62 nM
